Source: patent US20230312755A1 (ANGITIA, published 2023)
Changes are numbered by the printed parent chain.

Key:
human Sclerostin [1] = biological target: T1, human Sclerostin (human, UniProt Q9BQB4 24-213); assay: cell-based or functional assay
T1 sequence: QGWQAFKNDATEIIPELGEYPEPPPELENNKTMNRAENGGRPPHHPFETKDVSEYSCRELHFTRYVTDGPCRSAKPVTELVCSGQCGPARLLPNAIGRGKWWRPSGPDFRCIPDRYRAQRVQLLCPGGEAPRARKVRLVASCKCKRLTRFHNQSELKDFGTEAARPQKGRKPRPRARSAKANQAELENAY

[2] = biological target: T2, His-tagged human Sclerostin (NCBI reference No. NP_079513.1) (human, UniProt Q9BQB4 24-213); assay: ELISA, plate coated with His-tagged human Sclerostin
T2 construct: also called mouse His-tagged human Sclerostin; not shown: His tag
T2 sequence: T1 sequence
Experimental: The ability of antibodies to specifically bind Sclerostin was determined by an ELISA capture assay. Plates were coated, in a 96-well half-area, with 100 μl/well of mouse His-tagged human Sclerostin (NCBI reference No. is NP_079513.1) [[…]], in coating buffer (PBS, pH 7.4), and incubated at RT for one hour, or 4° C. overnight. The plates were washed once with 100 μl/well of washing solution (PBS containing 0.2% Tween20, BIO-RAD). Plates were then incubated in blocking solution (PBS containing 1% BSA, 1% goat serum and 0.5% Tween20; 100 μl/well) for one hour at room temperature (RT). Anti-Sclerostin antibodies at various concentrations (1000, 333.3, 111.1, 37.0, 12.3, 4.1, 1.4, 0.5, 0.15, 0.05 ng/ml), a positive control antibody Romosozumab or non-Sclerostin related IgG (human or rat IgG, negative control), were then added to each well in 20 μl/well of blocking solution, and plates were incubated at RT for one hour. NeutrAvidin HRP (Pierce, Catalog #31001) diluted in blocking solution (1:50,000 dilution) was added at to each well ([…]), and the plates were incubated at RT for one hour prior to three washes with […] of washing solution. SuperSignal ELISA Femto (ThermoFisher Scientific, Catalog #37074) working solution was added to the plates ([…]), and the signal was read using a luminometer at 425 nm.

[3] = biological target: T3, cynomolgus monkey Sclerostin (cynomolgus monkey, UniProt Q9BG78 24-213 (Chlorocebus aethiops entry)); assay: BLI (Gator), antibody on anti-hFc biosensor, Sclerostin as analyte, 1:1 global fit
T3 chain: T1 sequence with E26D, P70Q, E129A, T161P, S178G
Experimental: (§1) The binding affinity of humanized anti-Sclerostin antibodies to human and cynomolgus monkey Sclerostin were determined with bio-layer interferometry using a Gator instrument (Probe Life). Antibodies were immobilized on an anti-hFc biosensor, using a […]. Serial dilutions of human Sclerostin and cynomolgus monkey Sclerostin from 4 μg/ml by two folds in kinetics buffer (PBS, pH 7.4, 0.05% Tween-20, 0.2% BSA, 10 μM biotin) were used as the analytes. Affinity (KD) and kinetic parameters (Kₒₙ and Koff) were calculated from a global fit (1:1) of the data using the Gator software.

human Sclerostin [4] = biological target: T1, human Sclerostin; assay: as above
Experimental: as §1

human Sclerostin [5] = biological target: T1, human Sclerostin; assay: BLI (Gator), antibody on anti-hFc biosensor, antigen as analyte; koff at LOD, KD estimated
Experimental: (§2) Binding kinetics and affinities of anti-Sclerostin×anti-DKK1 and anti-Sclerostin×anti-RANKL bispecific antibodies were measured with Gator (Probe Life) bio-layer interferometry (BLI). Antibodies were immobilized on an anti-hFc biosensor, using a 5 μg/ml solution. Serial dilutions of sclerostin (from 1 μg/ml), DKK1 (from 2 μg/ml), or RANKL (from 4 μg/ml) by two folds in kinetics buffer (PBS, pH 7.4, 0.05% Tween-20, 0.2% BSA) were used as the analytes. Affinity (KD) and kinetic parameters (Kₒₙ and Koff) were calculated from a global fit (1:1) of the data using the Gator software.

human DKK1 [6] = biological target: T4, human DKK1 (human, UniProt O94907 32-266); assay: cell-based or functional assay
T4 sequence (looked up): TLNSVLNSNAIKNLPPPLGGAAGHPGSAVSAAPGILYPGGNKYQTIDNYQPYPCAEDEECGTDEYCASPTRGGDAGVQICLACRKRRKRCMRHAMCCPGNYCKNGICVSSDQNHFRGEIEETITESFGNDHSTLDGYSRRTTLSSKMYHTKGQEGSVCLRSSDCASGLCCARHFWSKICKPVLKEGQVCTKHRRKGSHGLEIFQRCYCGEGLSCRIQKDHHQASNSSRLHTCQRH

human Sclerostin [7] = biological target: T1, human Sclerostin; assay: cell-based or functional assay; remark: listed apart in the source
human DKK1 [8] = biological target: T4, human DKK1; assay: BLI (Gator), antibody on anti-hFc biosensor, antigen as analyte, 1:1 global fit
Experimental: as §2

human Sclerostin [9] = biological target: T1, human Sclerostin; assay: as above
Experimental: as §2

B1: 91F6D10 (antibody, V domains shown)
VH: QVQLQQSGAELVRPGASVTLSCKASGYTFTDYEMHWVKQTPVHGLEWIGAIDPETGGTAYNQKFKAKAILTADRSSSTAYMELRSLTSEDSAVYYCFSYDYVSYWGQGTLVTVSA
VL: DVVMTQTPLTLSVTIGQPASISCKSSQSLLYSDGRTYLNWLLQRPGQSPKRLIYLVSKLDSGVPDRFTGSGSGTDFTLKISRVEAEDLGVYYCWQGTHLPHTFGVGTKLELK
notes: Murine monoclonal antibody from a hybridoma
With B1 the “EC50, Sclerostin-neutralisation activity in HEK293/TCF/LEF/Wnt1 cells (luciferase reporter)” value (human Sclerostin [1]) was 60.6 nM and the EC50 [2] was 0.06 nM.

B2: 56E5C10 (antibody, V domains shown)
VH: B1 VH with Y32F, K65T
VL: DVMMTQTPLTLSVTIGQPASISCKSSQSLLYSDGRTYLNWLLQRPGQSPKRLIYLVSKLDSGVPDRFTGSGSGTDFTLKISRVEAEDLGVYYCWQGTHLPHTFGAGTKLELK
notes: as for B1
With B2 the “EC50, Sclerostin-neutralisation activity in HEK293/TCF/LEF/Wnt1 cells (luciferase reporter)” value (human Sclerostin [1]) was 64.2 nM and the EC50 [2] was 0.09 nM.

B3: 71G6G8 (antibody, V domains shown)
VH: B1 VH with V2A, M34I, A66G, M81L, S103T, S114T
VL: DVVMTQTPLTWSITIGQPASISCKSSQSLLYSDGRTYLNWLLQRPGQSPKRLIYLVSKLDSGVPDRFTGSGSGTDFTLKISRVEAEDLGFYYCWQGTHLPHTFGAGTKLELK
notes: Murine anti-Sclerostin monoclonal antibody
In the case of B3, the “EC50, Sclerostin-neutralisation activity in HEK293/TCF/LEF/Wnt1 cells (luciferase reporter)” value (human Sclerostin [1]) is reported as 67.4 nM and the EC50 [2] is reported as 0.04 nM.

B4: 81B2B6 (antibody, V domains shown)
VH: B1 VH
VL: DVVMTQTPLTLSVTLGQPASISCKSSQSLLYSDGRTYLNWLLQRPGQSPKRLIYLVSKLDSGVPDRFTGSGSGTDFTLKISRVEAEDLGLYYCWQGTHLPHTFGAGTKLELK
notes: as for B1
With B4 the “EC50, Sclerostin-neutralisation activity in HEK293/TCF/LEF/Wnt1 cells (luciferase reporter)” value (human Sclerostin [1]) was 59.6 nM and the EC50 [2] was 0.01 nM.

B5: 84F2D5 (antibody, V domains shown)
VH: B1 VH with Y32F, M34I, V37L, H43P, A66G, I69L, R74K
VL: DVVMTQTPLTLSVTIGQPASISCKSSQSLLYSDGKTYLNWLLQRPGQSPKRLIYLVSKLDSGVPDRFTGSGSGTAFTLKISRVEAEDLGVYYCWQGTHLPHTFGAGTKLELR
notes: as for B1
For B5, the “EC50, Sclerostin-neutralisation activity in HEK293/TCF/LEF/Wnt1 cells (luciferase reporter)” value (human Sclerostin [1]) was 59.4 nM and the EC50 [2] was 0.02 nM.

B6: 94B12D3 (antibody, V domains shown)
VH: B1 VH with M34I, C96S
VL: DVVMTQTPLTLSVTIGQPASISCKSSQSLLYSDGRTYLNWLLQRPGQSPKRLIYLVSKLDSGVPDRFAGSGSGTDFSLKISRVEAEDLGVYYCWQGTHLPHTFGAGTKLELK
notes: as for B1
With B6 the “EC50, Sclerostin-neutralisation activity in HEK293/TCF/LEF/Wnt1 cells (luciferase reporter)” value (human Sclerostin [1]) was 62.8 nM and the EC50 [2] was 0.04 nM.

B7: 97C11D7 (antibody, V domains shown)
VH: B1 VH with T58S, Y60N
VL: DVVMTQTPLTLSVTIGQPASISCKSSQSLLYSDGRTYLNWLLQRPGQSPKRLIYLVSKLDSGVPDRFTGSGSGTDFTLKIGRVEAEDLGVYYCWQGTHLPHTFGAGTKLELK
notes: as for B1
B7 was tested, and the “EC50, Sclerostin-neutralisation activity in HEK293/TCF/LEF/Wnt1 cells (luciferase reporter)” value (human Sclerostin [1]) was 55.4 nM and the EC50 [2] was 0.04 nM.

B8: 65B12C9 (antibody, V domains shown)
VH: QVQLQQPGAELVKPGASVKLSCKASGYTFTSYWMHWVKQRPGQGLEWIGMIHPNSGSSNYNEKFKSKATLTVDKSSSTAYMQLSSLTSEDSAVYYCANDYDDEGFAYWGQGTLVTVSA
VL: SIVMTQTPKFLLVSAGDRVTITCKASQSVSNDVAWYQQKPGQSPKLLIYYASNRCTGVPDRFTGSGYGTDFTFTISTVQAEDLAVYFCQQDYSSPWTFGGGTKLEIK
notes: as for B1
In the case of B8, the “EC50, Sclerostin-neutralisation activity in HEK293/TCF/LEF/Wnt1 cells (luciferase reporter)” value (human Sclerostin [1]) is reported as 152 nM and the EC50 [2] is reported as 0.04 nM.

B9: hAb-1 (antibody, V domains shown)
VH: EVQLVQSGAEVKKPGASVKVSCKASGYTFTDYEIHWVRQAPGKGLEWMGAIDPETGGTAYNQKFKGRVTMTTDTSTSTAYMELRSLRSDDTAVYYCYSYDYVTYWGQGTTVTVSS
VL: DVVMTQSPLSLSVSPGERASLSCKSSQSLLYSDGRTYLNWYLQKPGQSPQRLIYLVSKLDSGVPDRFSGSGSGTDFTLKISRVQSEDVGVYYCWQGTHLPHTFGGGTKVEIK
notes: Humanized 93B1B7; also called humanized anti-Sclerostin antibody hAb-1
For B9, the “EC50, Sclerostin-neutralisation activity in HEK293/TCF/LEF/Wnt1 cells (luciferase reporter)” value (human Sclerostin [1]) was 13.9 nM, the Kd [3] was 0.18 nM and the koff [3] was 0.000229 s⁻¹. The kon [3] was 1.28e+06 M⁻¹ s⁻¹, the Kd (human Sclerostin [4]) was 0.41 nM and the koff (human Sclerostin [4]) was 0.0003 s⁻¹. For the same binder, the kon (human Sclerostin [4]) was 730000 M⁻¹ s⁻¹.

B10: hAb-3 (antibody, V domains shown)
VH: B9 VH
VL: DIQMTQSPSSLSASVGDRVTITCRSSQSLLYSDSRTYLNWLQQKPGKSPKRLIYLVSKLDSGVPDRFSGSGSGTDFTLTISSLQPEDFATYYCWQGTHLPHTFGGGTKVEIK
In the case of B10, the “EC50, Sclerostin-neutralisation activity in HEK293/TCF/LEF/Wnt1 cells (luciferase reporter)” value (human Sclerostin [1]) is reported as 15.1 nM.

B11: BAP0037 (bispecific antibody, human IgG4 S228P, kappa)
heavy: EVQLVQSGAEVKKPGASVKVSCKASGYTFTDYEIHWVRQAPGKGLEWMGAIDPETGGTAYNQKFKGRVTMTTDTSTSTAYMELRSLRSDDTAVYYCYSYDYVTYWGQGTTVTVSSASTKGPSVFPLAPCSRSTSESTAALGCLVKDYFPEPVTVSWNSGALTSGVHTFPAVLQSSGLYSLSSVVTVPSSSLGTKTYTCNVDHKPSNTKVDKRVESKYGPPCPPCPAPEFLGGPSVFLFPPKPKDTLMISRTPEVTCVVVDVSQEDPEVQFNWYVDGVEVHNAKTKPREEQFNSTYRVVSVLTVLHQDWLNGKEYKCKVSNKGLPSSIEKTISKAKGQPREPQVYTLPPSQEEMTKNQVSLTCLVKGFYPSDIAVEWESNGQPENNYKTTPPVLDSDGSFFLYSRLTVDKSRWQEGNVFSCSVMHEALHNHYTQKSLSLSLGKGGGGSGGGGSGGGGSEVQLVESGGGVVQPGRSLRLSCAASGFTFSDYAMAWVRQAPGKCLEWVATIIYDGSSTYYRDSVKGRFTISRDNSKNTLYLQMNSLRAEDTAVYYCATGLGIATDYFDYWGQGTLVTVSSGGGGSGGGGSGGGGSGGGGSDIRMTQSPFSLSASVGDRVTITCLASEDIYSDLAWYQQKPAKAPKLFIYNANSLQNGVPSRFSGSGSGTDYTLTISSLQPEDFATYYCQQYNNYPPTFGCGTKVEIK
light: DIQMTQSPSSLSASVGDRVTITCRSSQSLLYSDGRTYLNWYQQKPGKSPKRLIYLVSKLDSGVPDRFSGSGSGTDFTLTISSLQPEDFATYYCWQGTHLPHTFGGGTKVEIKRTVAAPSVFIFPPSDEQLKSGTASVVCLLNNFYPREAKVQWKVDNALQSGNSQESVTEQDSKDSTYSLSSTLTLSKADYEKHKVYACEVTHQGLSSPVTKSFNRGEC
notes: Anti-DKK1 scFv (VH-VL) fused to the C-terminus of the heavy chains of the anti-Sclerostin full length antibody (hAb-2)
In the case of B11, the Kd (human Sclerostin [5]) is reported as roughly 0.01 nM, the “EC50, DKK1 neutralization activity in HEK293/TCF/LEF/Wnt1 reporter gene assay” value (human DKK1 [6]) is reported as 24.1 nM and the “EC50, Sclerostin neutralization activity in HEK293/TCF/LEF/Wnt1 reporter gene assay” value (human Sclerostin [7]) is reported as 23.6 nM. For the same binder, the Kd (human DKK1 [8]) was 1.01 nM, the koff (human DKK1 [8]) was 0.000301 s⁻¹ and the kon (human DKK1 [8]) was 297000 M⁻¹ s⁻¹. It also gave a kon (human Sclerostin [9]) of 1.88e+06 M⁻¹ s⁻¹.

B12: BAP0039 (bispecific antibody, human IgG4 S228P, kappa)
heavy: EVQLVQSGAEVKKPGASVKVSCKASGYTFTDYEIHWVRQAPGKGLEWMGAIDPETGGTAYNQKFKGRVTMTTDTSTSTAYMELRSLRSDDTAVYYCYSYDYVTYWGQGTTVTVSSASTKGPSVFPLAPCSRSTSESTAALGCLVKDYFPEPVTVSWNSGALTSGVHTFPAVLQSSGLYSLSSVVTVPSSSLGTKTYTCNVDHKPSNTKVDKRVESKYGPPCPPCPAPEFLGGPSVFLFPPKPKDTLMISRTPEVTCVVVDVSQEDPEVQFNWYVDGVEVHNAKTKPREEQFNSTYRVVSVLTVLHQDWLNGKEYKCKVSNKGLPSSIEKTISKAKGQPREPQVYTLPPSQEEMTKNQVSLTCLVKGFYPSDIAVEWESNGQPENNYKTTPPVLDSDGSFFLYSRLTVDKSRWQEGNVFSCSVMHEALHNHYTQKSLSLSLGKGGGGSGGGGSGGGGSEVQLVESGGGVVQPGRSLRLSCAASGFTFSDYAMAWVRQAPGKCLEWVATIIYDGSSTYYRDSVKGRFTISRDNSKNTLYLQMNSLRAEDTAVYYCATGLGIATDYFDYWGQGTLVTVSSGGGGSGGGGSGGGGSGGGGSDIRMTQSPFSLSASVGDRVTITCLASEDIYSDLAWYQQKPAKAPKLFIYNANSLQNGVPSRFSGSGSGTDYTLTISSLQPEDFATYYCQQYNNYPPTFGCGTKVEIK
light: DVVMTQSPLSLSVSPGERASLSCKSSQSLLYSDGRTYLNWYLQKPGQSPQRLIYLVSKLDSGVPDRFSGSGSGTDFTLKISRVQSEDVGVYYCWQGTHLPHTFGGGTKVEIKRTVAAPSVFIFPPSDEQLKSGTASVVCLLNNFYPREAKVQWKVDNALQSGNSQESVTEQDSKDSTYSLSSTLTLSKADYEKHKVYACEVTHQGLSSPVTKSFNRGEC
notes: Anti-DKK1 scFv (VH-VL) fused to the C-terminus of the heavy chains of the anti-Sclerostin full length antibody (hAb-1)
In the case of B12, the “EC50, DKK1 neutralization activity in HEK293/TCF/LEF/Wnt1 reporter gene assay” value (human DKK1 [6]) is reported as 20.9 nM, the “EC50, Sclerostin neutralization activity in HEK293/TCF/LEF/Wnt1 reporter gene assay” value (human Sclerostin [7]) is reported as 26.7 nM and the Kd (human DKK1 [8]) is reported as 0.14 nM. For the same binder, the koff (human DKK1 [8]) was 4.32e-05 s⁻¹, the kon (human DKK1 [8]) was 309000 M⁻¹ s⁻¹ and the Kd (human Sclerostin [9]) was 0.052 nM. For the same binder, the koff (human Sclerostin [9]) was 9.74e-05 s⁻¹ and the kon (human Sclerostin [9]) was 1.88e+06 M⁻¹ s⁻¹.

B13: 51E8D4 (antibody, V domains shown)
VH: B1 VH with Y32F, M34I, V37M, H43P, A66G, I69L, R74K, E82D, Y95F
VL: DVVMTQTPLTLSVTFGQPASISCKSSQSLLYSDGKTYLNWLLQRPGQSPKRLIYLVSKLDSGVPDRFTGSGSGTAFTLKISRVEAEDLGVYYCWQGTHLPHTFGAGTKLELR
notes: as for B1
B13 was tested, and the “EC50, Sclerostin-neutralisation activity in HEK293/TCF/LEF/Wnt1 cells (luciferase reporter)” value (human Sclerostin [1]) was 63.4 nM and the EC50 [2] was 0.07 nM.

B14: Romosozumab (antibody, V domains shown)
VH: EVQLVQSGAEVKKPGASVKVSCKASGYTFTDYNMHWVRQAPGQGLEWMGEINPNSGGAGYNQKFKGRVTMTTDTSTSTAYMELRSLRSDDTAVYYCARLGYDDIYDDWYFDVWGQGTTVTVSS
VL: DIQMTQSPSSLSASVGDRVTITCRASQDISNYLNWYQQKPGKAPKLLIYYTSRLLSGVPSRFSGSGSGTDFTLTISSLQPEDFATYYCQQGDTLPYTFGGGTKVEIK
For B14, the Kd [3] was 0.35 nM, the koff [3] was 0.000239 s⁻¹ and the kon [3] was 755000 M⁻¹ s⁻¹.
